In patent US8524227B2, “Anti-IL-TIF antibodies” (ZymoGenetics, Inc., priority 2002, dated 2013):

Test: LPS-induced endotoxemia mouse model
Assay type: in vivo, mice
Method: Briefly, six month Balb/c (CRL) female mice were injected with 25 μg LPS (Sigma) in sterile PBS intraperitoneally (IP). Serum samples were collected at 0, 1, 4, 8, 16, 24, 48 and 72 hr from groups of 8 mice for each time point. Serum samples were assayed for inflammatory cytokine levels. IL-1b, IL-6, TNFa, IL-10 and serum amyloid A protein (SAA) levels were measured using commercial ELISA kits purchased from Biosource International (Camarillo, Calif.).
Body temperatures in a separate group of animals were monitored by surgically implanted telemetry devices over the course of the 72 hr experiment. Body temperatures in mice dropped maximally by 2° C. from 37.07° C. to 34.98° C. 30 minutes after LPS injection.
The ability of zcytor16 treatment to effect proinflammatory indicators induced with a single 25 μg LPS dose IP in mice was tested. All samples were analyzed for SAA, IL-TIF and circulating neutrophil counts. Subsets from each group were analyzed for particular cytokine levels (1 hour samples were screened for TNF alpha, 4 hour samples were analyzed for IL-6) Animals were sacrificed at indicated time points in Table 17 below and whole blood and serum were collected and aliquoted for analysis.
72 B1/6 female mice (CRL) were given a single IP dose of zcytor16 as described in Table 17, below. Control mice were C57B1/6 (CRL).
30 minutes later, they received another IP injection of 25 μg LPS (Sigma) in 100 μl, to initiate an endotoxemia cascade.
To assess whether zcytor16 could inhibit the SAA induction in the LPS-induced endotoxemia mouse model, mice were injected with Zcytor16, 30 minutes prior to LPS injection, as shown in Table 17 in Example 31C above.
An ELISA to determine SAA levels in the 4 hour and 8 hour samples was performed using the Mouse SAA Immunoassay Kit (BioSource International, California) following the manufacturer's directions.

B1: zcytor16-Fc4: soluble receptor for IL-TIF, zcytor16 fused to Fc4; IL-TIF antagonist (protein)
chain: TQSTHESLKPQRVQFQSRNFHNILQWQPGRALTGNSSVYFVQYKIYGQRQWKNKEDCWGTQELSCDLTSETSDIQEPYYGRVRAASAGSYSEWSMTPRFTPWWETKIDPPVMNITQVNGSLLVILHAPNLPYRYQKEKNVSIEDYYELLYRVFIINNSLEKEQKVYEGAHRAVEIEALTPHSSYCVVAEIYQPMLDRRSQRSEERCVEIPEPRSSDKTHTCPPCPAPEAEGAPSVFLFPPKPKDTLMISRTPEVTCVVVDVSHEDPEVKFNWYVDGVEVHNAKTKPREEQYNSTYRVVSVLTVLHQDWLNGKEYKCKVSNKALPSSIEKTISKAKGQPREPQVYTLPPSRDELTKNQVSLTCLVKGFYPSDIAVEWESNGQPENNYKTTPPVLDSDGSFFLYSKLTVDKSRWQQGNVFSCSVMHEALHNHYTQKSLSLSPGK
10 ug 30 minutes prior to LPS
  effect on SAA induction: did not have significant effect
100 ug 30 minutes prior to LPS, 4 hr and 8 hr
  reduction of the SAA induction: about 50%
1 hr time point
  neutrophil count in circulation: reduced neutrophil count
4 hour, 100 μg or 10 μg
  SAA levels relative to PBS injected mice: dose-dependant, statistically significant reduction
8 hour, 100m
  SAA levels relative to PBS injected mice: statistically significant reduction
mouse, in vivo
  TNF-alpha and IL-6 level: no significant change
